Values of other authors, collected in paper PMC5963937.

Biological target: LPL (Homo sapiens) (UniProt P06858)
Sequence of UniProt P06858 (P06858 28-475): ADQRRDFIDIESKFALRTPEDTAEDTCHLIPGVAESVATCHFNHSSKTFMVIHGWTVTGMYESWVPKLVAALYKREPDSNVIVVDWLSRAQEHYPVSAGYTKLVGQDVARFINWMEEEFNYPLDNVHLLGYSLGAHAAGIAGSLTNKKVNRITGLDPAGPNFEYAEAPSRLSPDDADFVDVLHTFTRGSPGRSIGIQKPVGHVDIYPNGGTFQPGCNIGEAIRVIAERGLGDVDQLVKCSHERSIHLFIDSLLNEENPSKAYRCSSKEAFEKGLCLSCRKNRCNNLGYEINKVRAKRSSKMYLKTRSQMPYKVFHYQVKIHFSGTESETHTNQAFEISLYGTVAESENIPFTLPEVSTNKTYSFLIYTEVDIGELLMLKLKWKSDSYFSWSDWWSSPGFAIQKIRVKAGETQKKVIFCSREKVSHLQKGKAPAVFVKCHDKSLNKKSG

- Kd: 25 nM
Substance: GPIHBP1 (from UniProt Q8IV16)
